Data: a protein production outcome set (Wang et al. 2014)

Assay: label from the status in PepcDB records
For “MASGLSEIGSTKMFDGYNKRYKHFSETLGCSMTFSIYFPPSASSSHKSPVLYWLSGLTCTDENFIIKSGAQRAASTHGIALVAPDTSPRGLNVEGEADSYDFGVGAGFYLNATQEKWKNWRMYDYVVKELPKLLSENFSQLDTTKASISGHSMGGHGALTIYLRNLDKYKSVSAFAPITNPINCAWGQKAFTNYLGDNKAAWEEYDATCLISKYNNLSATILIDQGENDQFYPDQLLPSKFEEACKKVNAPLLLRLHPGYDHSYYFIATFIEDHISHHAQALEL”, the protein production was “failed”. In the case of “MASGMGVDENCVARFNELKIRKTVKWIVFKIENTKIVVEKDGKGNADEFRGALPANDCRFGVYDCGNKIQFVLWCPDNAPVKPRMTYASSKDALLKKLDGATAVALEAHEMGDLAALA”, the protein production is reported as “failed”. In the case of “MASGNAGDTACLPAMVQAASLTAQQLLQQHWGYPAFRPGQAEIVEAIAQGRDCLIIWPTGGGKSLCFQVPALLRSGLTIVVTPLIALIENQVADLQARGIAAACLHSQMAPRDRKAVLQKLPQLKLLYLAPETLLSTPLWSRLTEPTIAIAGLILDEAHCLLQWGESFRPTYLRLGAIRPALVRLGKPSFPIAAFTATAYPQEVARLSQILQLQQPQRHQRDPYRSNLVLAVKTVWTPRQRQNQLLDFLAKHQGQSGLIYLRSRRDCETWADRLRNRGYRCAAYHAGVSDRERRQIEQAWQTGSLPFAVCSSAFGMGIDKRDVRWVAHVHPPLLLSEYLQEVGRGGRDQQRAQGLTLVSEPSGWLDPSDRDRWQGFQQATQQQWEAAQRQAQQLPASGDLRSLASSNELDLALAYLQRLGQLQWLDPFRYRRRAIPTPRPAPRLDLQPLRQFLYSRDCRWRSLLQSFGSNHPTTWRCGHCDRCQTTG”, the protein production is reported as “failed”. In the case of “MASGSMSSYGSGSWTVKQNKAFERALAVYDQDTPDRWHNVARAVGGKTPEEAKRQYDLLVRDIESIENGHVPFPDYKTTTGNSNRGRLRDEEKRMRSMKLQ”, the protein production is reported as “failed”. With “MASHDHHHHHHDHEHDHEKSDGGEGKASWVGKDGKVYHSHDGLAPHSHEPIYSPGYFSRRAPPLHDRNFSERAFTVGIGGPVGTGKTALMLALCRFLRDKYSLAAVTNDIFTKEDGEFLVKNGALPEERIRAVETGGCPHAAIREDISINLGPLEELSNLFKADLLLCESGGDNLAANFSRELADYIIYIIDVSAGDKIPRKGGPGITQADLLVINKTDLAAAVGADLSVMERDSLRMRDGGPFVFAQVKHGLGVEEIVNHVMHSWEHATGKKRQ” the protein production was “not failed”. With “MASHQEQSYKAGETRGKAQEKTGEAMGTMGDKTQAAKDKTQETAQSAQQKAHETAQSAKDKTSQAAQTTQERAQESKDKTGSYMSETGEAIKNKAHDAAEYTKETAEAGKEKTSGILGQTGEQVKQMAMGATDAVKHTLGLRTDEGNKEHVSSAPSTTTTTTTRETQRK” the protein production was “failed”. For “MASILFFEKPGCQNNTRQKAWLELSGHTVDAVNILEYAWTKEELSLYLGENPISACFNPAAPEVKTGSMKPELLNKEDALDAMIKKPLLIRRPLLKIGNHYLQGFDTAVLRTIIS”, the protein production was “failed”. For “MASKPVDVMVVNFNTAGLLQPMFDALRRADSERLASYLVVDNASRDDSVQRMAQVCPEALLLSNKQNVGFGRANNQLLAHLKGKYALLLNTDAFVAADSLQKTLDYMDAHPECGVLGVRLEGRDGDLQPSCRYFPTPLNVFVGRTGLGRFFPGVKMVDDMNWDHASVRECDWLPGCFYLVRREVLDKVGLFDPRYFLYYEEVDHCKRVKEAGWKVVFYPHTTVVHIGGESSKSVAELEAASRQISSYQIESELLYFRKHHGVAGLALHMLLVTLGDLVLALKALLKRRGWGAIQACWRHCRATWSLLFKTRYASQPTR”, the protein production was “failed”. For “MASLLQGFEEVQLVKPVGKTVLTVTDSAIRFNKATAEALGFPAYVKVLINDKTRQIAVTPTTAKAGNAIKFSKPEGKQAASVSVKEATFIEAVKAYLTLPEAPEGEIAYQSVNGTAYPESKTVIFDVANATAGTMKLEHHHHHH”, the protein production was “not failed”. For “MASLSELAVFIAVAEQGSFVGAGRVLGVSASAVGKRISRLEVDLGVRLLQRNTRSLALTAEGETVLSRGRSLLDEAESLRVVLERSSRQPGGVLRLSLPPIGGVLMAELAAFRQRYPEVALELDYSERNVDIIEEGFDAAIRVGAGDDGKLRSLALPGFRRLIVAAPDYLVRHGQPRSAAQLAEHQLIHYRSPNSGKLEAWPLVNAELPRALVCNSVHARLDFALQGQGIACLPDISIRRELEDGSLRPLLGSENGEKVVLRLLWPSSRGLSARMEAFLGFMRERSGAAPCENFKVRA”, the protein production was “failed”. In the case of “MASLSYPKTTMQIQLGANLKPYHTFGIEQLAAQLVVAESIDDLKALYCSAEWASLPKLIIGKGSNMLFTCHYTGMIVVNRLNGIEHQQDDDYHRLHVAGGEDWPSLVSWCVEQGIGGLENLALIPGCAGSAPIQNIGAYGVEFKDVCDYVEYLCLETGTVKRLTMEECQFGYRDSIFKHQLYQKAVVTAVGLKFAKAWQPIIQYGPLKDLSSDCAIHDVYQRVCATRMEKLPDPAVMGNAGSFFKNPVISQQAFARLQIEHPDVVAYPAEQGVKVAAGWLIDQAGLKGHQIGGAKVHPKQALVIVNTGDASAQDVLMLAADIQQRVFNCYGIELEHEVRFIGESEETNLKQWMSEQA”, the protein production is reported as “not failed”. With “MASMDVEEFIGQNRQLADRVEAFRGFSESDKHWKGRREFIFRNMADFPEPQVDHLLALSMVWQNHVFMGCRYSSELLQRVMEMAEGIEVEDAPVFKTRDEIIRQQKQR” the protein production was “failed”. In the case of “MASNMDREMILADFQACTGIENIDEAITLLEQNNWDLVAAINGVIPQENGILQSEYGGETIPGPAFN”, the protein production is reported as “failed”. In the case of “MASNRCAVCKILNETCAPMCIYAPHFPSNDASFKVIIQIFGAVNVCNILDNLEFPEQREIAANCLRYAAEARIRNPISGCHDMILQYKNILNNVEQDIESAVNELGTYVGHDQVPKFYDLPMPDDFLMTPVSLDSFIAKIKSLNEVQKNQLMQLPTAADNAPMIMNSIFGKMEDKNLKDGHRADGASTSAGK”, the protein production is reported as “failed”. In the case of “MASNRGAGGSLYGGADPYRSREGLSTRNASGSEEIQLRIDPMHSDLDDEILGLHGQIAQEIGSEAKSQRDFLDELQMTLIRAQAGVKNNIRKLNLSIIRSGNNHIMHVVLFALLLFFILYMWSKMFKR”, the protein production is reported as “failed”. In the case of “MASQIDQYAVFGNPINHSKSPFIHTLFARQTQQSMIYTAQCVPVDGFTEAAKHFFAQGGRGCNVTVPFKEEAYRFADRLTERARLAGAVNTLKKLDDGEILGDNTDGEGLVQDLLAQQVLLKGATILLIGAGGAARGVLKPLLDQQPASITVTNRTFAKAEQLAELVAAYGEVKAQAFEQLKQSYDVIINSTSASLDGELPAIDPVIFSSRSVCYDMMYGKGYTVFNQWARQHGCAQAIDGLGMLVGQAAESFMLWRGLRPGTKQILRELRKNLEGAL”, the protein production is reported as “not failed”. For “MASQTNQTVVDTKKIETENPPKPQVPASSCRKRVKDDNATFFANLKDHMDEFIHASMDEHKTCFKNTMDKIFGSFSKAEAVAEKQIEAKEVVEIHSPLQTAVTK”, the protein production was “not failed”. For “MASRGRRPEHGGPPELFYDETEARKYVRNSRMIDIQTRMAGRALELLYLPENKPCYLLDIGCGTGLSGSYLSDEGHYWVGLDISPAMLDEAVDREIEGDLLLGDMGQGIPFKPGTFDGCISISAVQWLCNANKKSENPAKRLYCFFASLFSVLVRGSRAVLQLYPENSEQLELITTQATKAGFSGGMVVDYPNSAKAKKFYLCLFSGPSTFIPEGLSENQDEVEPRESVFTNERFPLRMSRRGMVRKSRAWVLEKKERHRRQGREVRPDTQYTGRKRKPRF”, the protein production was “failed”. With “MASSALCFFLMSDLFEPPPDFPARSALRRDCTACGACCSAPDIHALGKPLGVPCRFLGAENTQGACLCGIYLERPAVCRSYAPDWVCGEVAPLPTLEARIRRFLEIYGLDPVTGLEHHHHHH” the protein production was “failed”. For “MASSDVLRQPDKNARPLALSGHVGFDSLPDQLVNKSTSQGFCFNILCIGETGIGKSTLMDTLFNTNFENFESSHFEPKVKLRAQTYDLQESNVRLKLTVVNTVGFGDQMNKQESYQHIVDYIDTQFESYLQEELKIKRSLHNYHDSRIHACLYFIAPSGHSLKSLDLVTMKKLDSKVNIIPVIAKADTISKSELHKFKIKIMSELVSNGVQIYQFPIDDETVAKINTAMNGHLPFAVVGSTEEVNIGNKMVKARQYPWGVVQVENENHCDFVKLREMLICVNMEDLREQTHTRHYELYRRCKLEEMGFKDTDPECKPVSLQQTYEAKRQEFLGELQRREEEMRQTFVQRVKEKEAELKDAERELQGKFEQLKRLHADEKSKLEEKRRSLEEEMSVFSKRKAATELLQAQSFNTSTNNKKDKDRKNSGFM”, the protein production was “not failed”.
